Experimental data from the RNAGym collection of RNA variant scans (doi:10.1093/nar/gkz1192).

B1: CPEB3 Ribozyme (parent)
chain: UAACAGGGGGCCACAGCAGAAGCGUUCACGUCGCAGCCCCUGUCAGAUUCUGGUGAAUCUGCGAAUUCUGCUGUAUAUCUC

Variants of: B1
Test: self-cleavage, relative activity (ratio to wild type); higher = more cleavage; in vitro, sequencing
How it was run: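 After error-prone PCR and barcoding, CPEB3 ribozyme mutant libraries were transcribed with T7 RNA polymerase at 37°C for 5 hours, then given 15 min with DNase I before an EDTA stop, and they cleaved during both steps. Reverse transcription with template switching preceded Illumina sequencing. Relative activity divides a variant's cleaved/total read fraction by the unmutated ribozyme's. At least 5 reads were required per variant, and three batches were averaged.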
U26A U69C showed a self-cleavage of 0.4. In the case of U26A U69A, the self-cleavage is reported as 0.46. U26A U69G showed a self-cleavage of 0.48. With U26A U49G the self-cleavage was 0.41. For U26A U49A, the self-cleavage was 0.49. With U26A U49C the self-cleavage was 0.3. With U26C G70A the self-cleavage was 0.59. In the case of U26C G70C, the self-cleavage is reported as 0.12. In the case of U26C G70U, the self-cleavage is reported as 0.26. With U26C G46A the self-cleavage was 0.17. With U26C C27U the self-cleavage was 0.27. Work on U26A G73A yielded a self-cleavage of 0.96. For U26C U31A, the self-cleavage was 0.27. For U26C U31C, the self-cleavage was 0.35. For U26C U31G, the self-cleavage was 0.32. Variant U26C U41G has a self-cleavage of 0.31. In the case of U26C U41C, the self-cleavage is reported as 0.45. Work on U26C U41A yielded a self-cleavage of 0.28. U26A U54A gave a self-cleavage of 0.82. U26A U54G showed a self-cleavage of 0.53. Variant U26A U54C has a self-cleavage of 0.84. Work on U26A U74C yielded a self-cleavage of 1.16. In the case of U26A U74A, the self-cleavage is reported as 1.31. Variant U26A U76A has a self-cleavage of 1.02. For U26A U76C, the self-cleavage was 0.74. With U26C A65G the self-cleavage was 0.3. In the case of U26C A65U, the self-cleavage is reported as 0.3. With U26C A65C the self-cleavage was 0.28. With U26C U54C the self-cleavage was 0.44. With U26C U54A the self-cleavage was 0.5. Work on U26C U54G yielded a self-cleavage of 0.27. In the case of U26A U60A, the self-cleavage is reported as 0.52. U26A U60C showed a self-cleavage of 0.34. U26C G33A gave a self-cleavage of 0.24. In the case of U26C G33C, the self-cleavage is reported as 0.13. For U26C G33U, the self-cleavage was 0.24. U26C C38G showed a self-cleavage of 0.09. U26C C38U showed a self-cleavage of 0.4. U26C C38A showed a self-cleavage of 0.19. For U26C A45G, the self-cleavage was 0.32. With U26C A45C the self-cleavage was 0.36. In the case of U26C A45U, the self-cleavage is reported as 0.26. U26C U49C showed a self-cleavage of 0.34. In the case of U26C U49A, the self-cleavage is reported as 0.3. U26C A28U gave a self-cleavage of 0.29. Variant U26C A28C has a self-cleavage of 0.29. For U26C A28G, the self-cleavage was 0.31. Work on U26C G55A yielded a self-cleavage of 0.43. For U26C G55C, the self-cleavage was 0.33. Variant U26C has a self-cleavage of 0.5. For U26C C40U, the self-cleavage was 0.34. Variant U26C C40A has a self-cleavage of 0.26. With U26A U48A the self-cleavage was 0.35. With U26A U48G the self-cleavage was 0.37. Variant U26A U48C has a self-cleavage of 0.47. Variant U26C G73A has a self-cleavage of 0.99. Variant U26C G73U has a self-cleavage of 1. For U26C G42U, the self-cleavage was 0.25. U26C G42A gave a self-cleavage of 0.31. For U26C G42C, the self-cleavage was 0.15. For U26A U78A, the self-cleavage was 0.67. In the case of U26A U78G, the self-cleavage is reported as 0.5. With U26A U78C the self-cleavage was 0.82. Work on U26C G61C yielded a self-cleavage of 0.25. U26C G61U gave a self-cleavage of 0.35. With U26C A75G the self-cleavage was 0.38. For U26C A75U, the self-cleavage was 0.56. For U26C A75C, the self-cleavage was 0.38. Work on U26C C44A yielded a self-cleavage of 0.09. U26C C44U showed a self-cleavage of 0.26. Variant U26C A35U has a self-cleavage of 0.24. U26C A35C gave a self-cleavage of 0.32. For U26C A35G, the self-cleavage was 1.07. In the case of U26C A77U, the self-cleavage is reported as 0.53. With U26C A77C the self-cleavage was 0.45. Variant U26C A77G has a self-cleavage of 0.46. For U26C C32U, the self-cleavage was 0.16. Variant U26C C32A has a self-cleavage of 0.22. U26C C32G showed a self-cleavage of 0.11. Variant U26C C81A has a self-cleavage of 0.63. Variant U26C C81U has a self-cleavage of 0.5. Variant U26A U41G has a self-cleavage of 0.33. In the case of U26A U41C, the self-cleavage is reported as 0.67. U26A U41A gave a self-cleavage of 0.25. Work on U26A U58G yielded a self-cleavage of 0.17. Variant U26A U58C has a self-cleavage of 0.39. Variant U26A U58A has a self-cleavage of 0.23. With U26C A57C the self-cleavage was 0.28. Work on U26C A57G yielded a self-cleavage of 0.36. U26C A57U showed a self-cleavage of 0.31. Variant U26C G52C has a self-cleavage of 0.27. Work on U26C G52A yielded a self-cleavage of 0.76. With U26C U48A the self-cleavage was 0.23. Variant U26C U48C has a self-cleavage of 0.33. U26C U48G showed a self-cleavage of 0.47. Variant U26A U67C has a self-cleavage of 0.29. In the case of U26A U67A, the self-cleavage is reported as 0.38. Work on U26C C39U yielded a self-cleavage of 0.61. Variant U26C C39A has a self-cleavage of 0.33. In the case of U26C C37A, the self-cleavage is reported as 0.13. For U26C C37U, the self-cleavage was 0.32. U26C C37G gave a self-cleavage of 0.71. Work on U26C C59A yielded a self-cleavage of 0.17. With U26A U31A the self-cleavage was 0.34. U26A U31C gave a self-cleavage of 0.69. With U26C G53A the self-cleavage was 0.51. With U26C A47G the self-cleavage was 0.48. Variant U26C A47C has a self-cleavage of 0.08. U26C A47U gave a self-cleavage of 0.36. Work on U26C C71A yielded a self-cleavage of 0.1. Work on U26C C71U yielded a self-cleavage of 0.24. U26C U51A showed a self-cleavage of 0.43. Work on U26C U51G yielded a self-cleavage of 0.46. With U26C U51C the self-cleavage was 0.44. Variant U26C C29U has a self-cleavage of 0.29. Work on U26C C29G yielded a self-cleavage of 0.35. With U26C C29A the self-cleavage was 0.18. Work on U26A U72A yielded a self-cleavage of 0.75. U26A U72C gave a self-cleavage of 1.13. Work on U26A U72G yielded a self-cleavage of 0.83. U26C C79A gave a self-cleavage of 0.61. For U26C C79U, the self-cleavage was 0.55. Variant U26C C79G has a self-cleavage of 0.59. Variant U26C C68U has a self-cleavage of 0.5. With U26C C68A the self-cleavage was 0.28. Variant U26C U43A has a self-cleavage of 0.26. U26C U43G gave a self-cleavage of 0.7. U26C U43C gave a self-cleavage of 0.77. In the case of U26A U43A, the self-cleavage is reported as 0.39. U26A U43C gave a self-cleavage of 0.29. U26A U43G showed a self-cleavage of 0.33. U26C G63A gave a self-cleavage of 0.35. Variant U26C G63C has a self-cleavage of 0.41. U26C G63U gave a self-cleavage of 0.61. U26A U80C showed a self-cleavage of 1.02. In the case of U26A U80G, the self-cleavage is reported as 1.06. Work on U26A U80A yielded a self-cleavage of 0.96. Variant U26C U58A has a self-cleavage of 0.15. U26C U58C gave a self-cleavage of 0.29. In the case of U26C U58G, the self-cleavage is reported as 0.28. U26A U51C gave a self-cleavage of 0.84. U26A U51G showed a self-cleavage of 0.8. U26A U51A showed a self-cleavage of 0.81. In the case of U26C C62A, the self-cleavage is reported as 0.38. Work on U26C C62U yielded a self-cleavage of 0.16. For U26C C62G, the self-cleavage was 0.17. In the case of U26C A64U, the self-cleavage is reported as 0.26. With U26C A64C the self-cleavage was 0.31. U26C A64G gave a self-cleavage of 0.36. In the case of U26C U60A, the self-cleavage is reported as 0.39. In the case of U26C U60C, the self-cleavage is reported as 0.27. In the case of U26C A56U, the self-cleavage is reported as 0.28. In the case of U26C A56C, the self-cleavage is reported as 0.31. Variant U26C A56G has a self-cleavage of 0.38. Work on U26C C50G yielded a self-cleavage of 0.22. With U26C C50U the self-cleavage was 0.27. In the case of U26C C50A, the self-cleavage is reported as 0.44. In the case of U26A G70A, the self-cleavage is reported as 0.4. With U26A G70C the self-cleavage was 0.2. U26C G30A showed a self-cleavage of 0.27. Work on U26C G30U yielded a self-cleavage of 0.16. In the case of U26C G36A, the self-cleavage is reported as 0.13. In the case of U26C G36C, the self-cleavage is reported as 0.15. Variant U26C G36U has a self-cleavage of 0.25. Work on U26A U66G yielded a self-cleavage of 0.42. In the case of U26A U66A, the self-cleavage is reported as 0.38. Variant U26A U66C has a self-cleavage of 0.34.
